Measurements published in patent publication US20070238862A1 (published 2007).
No end group written: not given here.

T1: human ChemerinR (human, UniProt Q99788 3-373)
T1 sequence: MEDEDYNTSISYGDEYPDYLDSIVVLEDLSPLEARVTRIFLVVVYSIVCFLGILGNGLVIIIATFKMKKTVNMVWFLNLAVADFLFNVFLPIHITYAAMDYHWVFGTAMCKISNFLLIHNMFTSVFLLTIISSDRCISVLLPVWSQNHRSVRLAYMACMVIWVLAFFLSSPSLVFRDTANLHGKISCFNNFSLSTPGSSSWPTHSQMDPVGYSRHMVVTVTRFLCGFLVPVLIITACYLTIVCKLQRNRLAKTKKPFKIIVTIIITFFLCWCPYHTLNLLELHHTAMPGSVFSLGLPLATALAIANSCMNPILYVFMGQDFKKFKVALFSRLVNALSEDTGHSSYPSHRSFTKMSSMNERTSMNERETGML


Molecular target: T1, human ChemerinR
Test: cell-based or functional assay

Binder | EC50 (nM), Calcium flux-Aequoscreen assay on ChemerinR expressing cells [nM]
IFPGQFAFS | 25.8
LFPGQFAFS | 66.3
FLPGQFAFS | 29.1

Other lines, results leading:

EC50 (nM), Calcium flux-Aequoscreen assay on ChemerinR expressing cells [nM] | Binder
4.3 | YFPGQFAFD-NH2 [YFPGQFAFD-CONH2]
43.8 | YVPGQFAFS
